US20190025332A1 (Novo Nordisk, published 2019)

B2: wild type human MIC-1 (ligand)
chain: ARNGDHCPLGPGRCCRLHTVRASLEDLGWADWVLSPREVQVTMCIGACPSQFRAANMHAQIKTSLHRLKPDTVPAPCCVPASYNPMVLIQKTDTGVSLQTYDDLLAKDCHCI
notes: also called wtMIC-1; hMIC-1

Experiments:
hPSPN = biological target: T1, hPSPN (human, UniProt O60542 61-156, limits assumed); assay: SPR; ligand as analyte over immobilised mGFRAL(ECR)-Fab-HPC4
T1 sequence (looked up): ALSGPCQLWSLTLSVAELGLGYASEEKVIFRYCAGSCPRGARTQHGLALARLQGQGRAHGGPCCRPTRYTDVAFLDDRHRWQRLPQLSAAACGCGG
From the text: (§1) For SPR-based binding assay, wtMIC-1 as well as hGDNF, hNRTN, hARTN and hPSPN, at various concentrations were run as flow-through analytes. hGFRAL(ECR)-Fab and mGFRAL(ECR)-Fab were immobilized as ligand. […] FCRL2-Fab-HPC4 (Ctrl.-Fab-HPC4) was used as control. Please see FIG. 5 and Table 4.

wild type human MIC-1 = biological target: B2; assay: as above
From the text: as §1

hARTN = biological target: T2, hARTN (human, UniProt Q5T4W7 108-220); assay: as above
T2 sequence (looked up): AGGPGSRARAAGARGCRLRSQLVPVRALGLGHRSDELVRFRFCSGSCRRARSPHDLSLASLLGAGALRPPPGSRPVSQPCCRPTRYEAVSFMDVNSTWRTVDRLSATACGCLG
From the text: as §1

hNRTN = biological target: T3, hNRTN (human, UniProt Q99748 96-197); assay: as above
T3 sequence (looked up): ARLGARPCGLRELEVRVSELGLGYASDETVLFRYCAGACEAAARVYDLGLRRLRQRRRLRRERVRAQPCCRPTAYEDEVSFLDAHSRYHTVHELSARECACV
From the text: as §1

hGDNF = biological target: T4, hGDNF (human, UniProt P39905 78-211); assay: as above
T4 sequence (looked up): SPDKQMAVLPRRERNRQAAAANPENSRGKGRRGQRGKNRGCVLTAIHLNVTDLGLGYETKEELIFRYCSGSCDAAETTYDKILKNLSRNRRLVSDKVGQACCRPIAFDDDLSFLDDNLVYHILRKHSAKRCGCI
From the text: as §1

hRET(ECR)-hIgG1.1_Fc [1] = biological target: T5, hRET(ECR)-hIgG1.1_Fc (human); assay: SPR; analyte 0 nM over immobilised hRet(ECR)-Fc
T5 construct: also called hRET(ECR)-Fc; hRet(ECR)-Fc
T5 sequence (chain, as listed by the source limits assumed): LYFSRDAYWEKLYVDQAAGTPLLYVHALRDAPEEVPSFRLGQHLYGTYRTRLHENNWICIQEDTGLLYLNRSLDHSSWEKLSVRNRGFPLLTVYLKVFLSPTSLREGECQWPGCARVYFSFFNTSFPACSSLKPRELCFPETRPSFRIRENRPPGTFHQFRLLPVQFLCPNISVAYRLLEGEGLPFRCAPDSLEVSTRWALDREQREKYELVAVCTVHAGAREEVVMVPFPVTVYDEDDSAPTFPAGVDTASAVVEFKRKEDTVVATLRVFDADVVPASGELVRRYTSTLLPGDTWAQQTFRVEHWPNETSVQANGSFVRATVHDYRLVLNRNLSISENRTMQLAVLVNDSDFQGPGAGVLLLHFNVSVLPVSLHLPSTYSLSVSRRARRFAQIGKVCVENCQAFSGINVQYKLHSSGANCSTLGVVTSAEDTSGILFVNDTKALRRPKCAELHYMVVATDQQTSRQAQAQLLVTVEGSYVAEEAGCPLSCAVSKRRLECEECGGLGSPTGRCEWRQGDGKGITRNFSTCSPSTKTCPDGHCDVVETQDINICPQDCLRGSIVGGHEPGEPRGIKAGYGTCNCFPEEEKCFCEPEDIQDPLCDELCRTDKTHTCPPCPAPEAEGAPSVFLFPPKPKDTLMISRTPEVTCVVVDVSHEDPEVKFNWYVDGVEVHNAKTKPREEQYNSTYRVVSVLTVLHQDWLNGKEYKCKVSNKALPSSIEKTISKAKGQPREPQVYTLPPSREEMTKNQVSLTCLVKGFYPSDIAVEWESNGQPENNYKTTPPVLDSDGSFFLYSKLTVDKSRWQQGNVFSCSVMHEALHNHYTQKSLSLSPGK
Method: (§2) hRet and complex of hGFRAL and MIC-1 interactions were assessed by SPR-based binding assay. A Biacore® 4000 (GE Healthcare, Piscataway, N.J., USA) instrument was used. The assays were performed at 25° C. at flow rates of 30 μL/minute in 1× HBS-P running buffer (BR-1006-71, GE Healthcare, Piscataway, N.J., USA). hRet(ECR)-Fc was immobilized through Fc as ligand on the chip. VISTA-Fc was immobilized as negative control ligand. The complex of MIC-1 and hGFRAL was prepared by pre-incubating wtMIC-1 with hGFRAL(ECR)-His. wtMIC-1, hGFRAL(ECR)-His, complex of wtMIC-1 and Ctrl-His, and complex of wtMIC-1 and hGFRAL(ECR)-His at various concentration were run as flow-through analyte.
(§3) Thus, it can be concluded that that hRet binds to hGFRAL in the presence of MIC-1; and Ret, MIC-1 and GFRAL forms a ternary complex.

hRET(ECR)-hIgG1.1_Fc [2] = biological target: T5, hRET(ECR)-hIgG1.1_Fc; assay: SPR; analyte 37 nM over immobilised hRet(ECR)-Fc
Method: as §2, §3

VISTA-Fc [3] = biological target: T6, VISTA-Fc; assay: SPR; analyte 0 nM over immobilised VISTA-Fc (Ctrl-Fc)
T6 construct: Negative control ligand immobilised on the chip; also called Ctrl-Fc
Method: as §2, §3

VISTA-Fc [4] = biological target: T6, VISTA-Fc; assay: SPR; analyte 37 nM over immobilised VISTA-Fc (Ctrl-Fc)
Method: as §2, §3

hRET(ECR)-hIgG1.1_Fc [5] = biological target: T5, hRET(ECR)-hIgG1.1_Fc; assay: SPR; analyte 12 nM over immobilised hRet(ECR)-Fc
Method: as §2, §3

VISTA-Fc [6] = biological target: T6, VISTA-Fc; assay: SPR; analyte 111 nM over immobilised VISTA-Fc (Ctrl-Fc)
Method: as §2, §3

hRET(ECR)-hIgG1.1_Fc [7] = biological target: T5, hRET(ECR)-hIgG1.1_Fc; assay: SPR; analyte 333 nM over immobilised hRet(ECR)-Fc
Method: as §2, §3

[8] = biological target: T7, full length hGFRAL and full length hRET51 co-expressed on cells (human, UniProt Q6UXV0 19-394; P07949 29-1114); assay: cell-based or functional assay
T7 sequence (P07949 29-1114, one chain of several): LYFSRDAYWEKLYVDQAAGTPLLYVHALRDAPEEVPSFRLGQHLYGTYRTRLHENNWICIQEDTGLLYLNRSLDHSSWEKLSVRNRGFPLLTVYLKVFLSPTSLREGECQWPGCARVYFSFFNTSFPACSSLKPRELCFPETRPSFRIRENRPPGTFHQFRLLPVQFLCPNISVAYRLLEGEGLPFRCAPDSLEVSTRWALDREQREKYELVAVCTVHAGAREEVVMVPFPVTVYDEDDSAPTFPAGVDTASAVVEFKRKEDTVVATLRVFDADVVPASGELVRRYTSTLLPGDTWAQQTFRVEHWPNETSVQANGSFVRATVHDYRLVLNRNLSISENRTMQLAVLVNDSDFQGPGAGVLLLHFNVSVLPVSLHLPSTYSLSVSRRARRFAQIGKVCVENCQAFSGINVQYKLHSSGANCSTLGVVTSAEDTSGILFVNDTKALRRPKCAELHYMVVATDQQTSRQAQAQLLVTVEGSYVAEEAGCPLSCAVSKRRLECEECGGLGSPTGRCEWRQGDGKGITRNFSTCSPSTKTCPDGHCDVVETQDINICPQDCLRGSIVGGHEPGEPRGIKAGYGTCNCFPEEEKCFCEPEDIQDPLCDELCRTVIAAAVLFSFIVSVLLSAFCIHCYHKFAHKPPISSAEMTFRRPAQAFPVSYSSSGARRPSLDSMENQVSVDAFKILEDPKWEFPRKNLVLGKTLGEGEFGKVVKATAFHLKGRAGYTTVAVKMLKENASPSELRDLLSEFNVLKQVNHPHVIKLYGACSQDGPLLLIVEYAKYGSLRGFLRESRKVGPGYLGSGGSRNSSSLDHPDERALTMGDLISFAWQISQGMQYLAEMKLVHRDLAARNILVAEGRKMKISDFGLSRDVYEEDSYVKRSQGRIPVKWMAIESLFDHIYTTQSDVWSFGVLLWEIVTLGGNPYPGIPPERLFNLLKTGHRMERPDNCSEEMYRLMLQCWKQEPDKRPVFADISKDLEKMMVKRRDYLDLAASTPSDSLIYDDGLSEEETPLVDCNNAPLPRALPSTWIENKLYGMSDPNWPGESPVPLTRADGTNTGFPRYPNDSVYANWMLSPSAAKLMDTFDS

[9] = biological target: T7, full length hGFRAL and full length …; assay: binding to BHK21-hGFRAL-IRES-hRET stable cells, median fluorescence intensity
[10] = biological target: full length hGFRAL and full length hRET9 co-expressed on HEK293 cells (human, UniProt Q6UXV0 19-394; P07949 29-1063); assay: cell-based or functional assay
Sequence of full length hGFRAL and full length hRET9 co-expressed on HEK293 cells (P07949 other isoform, or with tags, fused parts or gaps limits assumed): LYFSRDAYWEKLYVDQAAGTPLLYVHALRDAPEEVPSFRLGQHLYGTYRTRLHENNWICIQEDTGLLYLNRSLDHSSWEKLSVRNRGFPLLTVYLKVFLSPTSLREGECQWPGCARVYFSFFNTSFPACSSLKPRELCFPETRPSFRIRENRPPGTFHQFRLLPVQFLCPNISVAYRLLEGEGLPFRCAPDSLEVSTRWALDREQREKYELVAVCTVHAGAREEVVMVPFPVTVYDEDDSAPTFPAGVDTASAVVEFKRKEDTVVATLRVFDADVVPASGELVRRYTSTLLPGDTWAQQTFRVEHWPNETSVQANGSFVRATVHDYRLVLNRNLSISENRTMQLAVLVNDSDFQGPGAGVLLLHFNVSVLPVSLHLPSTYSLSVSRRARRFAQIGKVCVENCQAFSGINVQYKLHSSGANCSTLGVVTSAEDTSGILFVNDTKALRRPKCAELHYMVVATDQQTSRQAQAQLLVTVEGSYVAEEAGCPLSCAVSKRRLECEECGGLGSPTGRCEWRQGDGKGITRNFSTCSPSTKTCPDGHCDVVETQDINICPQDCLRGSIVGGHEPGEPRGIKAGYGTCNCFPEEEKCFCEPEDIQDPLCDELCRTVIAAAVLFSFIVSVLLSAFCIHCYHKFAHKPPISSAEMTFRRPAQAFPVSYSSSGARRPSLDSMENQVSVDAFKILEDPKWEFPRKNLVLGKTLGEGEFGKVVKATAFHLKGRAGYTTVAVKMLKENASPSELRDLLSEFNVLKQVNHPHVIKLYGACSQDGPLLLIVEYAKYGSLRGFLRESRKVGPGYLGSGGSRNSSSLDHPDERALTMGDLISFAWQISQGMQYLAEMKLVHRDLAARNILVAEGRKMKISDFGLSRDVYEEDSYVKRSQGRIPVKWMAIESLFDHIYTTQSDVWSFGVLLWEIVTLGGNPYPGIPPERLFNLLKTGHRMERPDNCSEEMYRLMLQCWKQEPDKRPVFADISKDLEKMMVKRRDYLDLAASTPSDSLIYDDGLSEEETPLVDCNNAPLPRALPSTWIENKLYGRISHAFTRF

[11] = biological target: full length hGFRAL and full length hRET43 co-expressed on HEK293 cells (human, UniProt Q6UXV0 19-394; P07949 29-1062); assay: cell-based or functional assay
Sequence of full length hGFRAL and full length hRET43 co-expressed on HEK293 cells (P07949 other isoform, or with tags, fused parts or gaps limits assumed): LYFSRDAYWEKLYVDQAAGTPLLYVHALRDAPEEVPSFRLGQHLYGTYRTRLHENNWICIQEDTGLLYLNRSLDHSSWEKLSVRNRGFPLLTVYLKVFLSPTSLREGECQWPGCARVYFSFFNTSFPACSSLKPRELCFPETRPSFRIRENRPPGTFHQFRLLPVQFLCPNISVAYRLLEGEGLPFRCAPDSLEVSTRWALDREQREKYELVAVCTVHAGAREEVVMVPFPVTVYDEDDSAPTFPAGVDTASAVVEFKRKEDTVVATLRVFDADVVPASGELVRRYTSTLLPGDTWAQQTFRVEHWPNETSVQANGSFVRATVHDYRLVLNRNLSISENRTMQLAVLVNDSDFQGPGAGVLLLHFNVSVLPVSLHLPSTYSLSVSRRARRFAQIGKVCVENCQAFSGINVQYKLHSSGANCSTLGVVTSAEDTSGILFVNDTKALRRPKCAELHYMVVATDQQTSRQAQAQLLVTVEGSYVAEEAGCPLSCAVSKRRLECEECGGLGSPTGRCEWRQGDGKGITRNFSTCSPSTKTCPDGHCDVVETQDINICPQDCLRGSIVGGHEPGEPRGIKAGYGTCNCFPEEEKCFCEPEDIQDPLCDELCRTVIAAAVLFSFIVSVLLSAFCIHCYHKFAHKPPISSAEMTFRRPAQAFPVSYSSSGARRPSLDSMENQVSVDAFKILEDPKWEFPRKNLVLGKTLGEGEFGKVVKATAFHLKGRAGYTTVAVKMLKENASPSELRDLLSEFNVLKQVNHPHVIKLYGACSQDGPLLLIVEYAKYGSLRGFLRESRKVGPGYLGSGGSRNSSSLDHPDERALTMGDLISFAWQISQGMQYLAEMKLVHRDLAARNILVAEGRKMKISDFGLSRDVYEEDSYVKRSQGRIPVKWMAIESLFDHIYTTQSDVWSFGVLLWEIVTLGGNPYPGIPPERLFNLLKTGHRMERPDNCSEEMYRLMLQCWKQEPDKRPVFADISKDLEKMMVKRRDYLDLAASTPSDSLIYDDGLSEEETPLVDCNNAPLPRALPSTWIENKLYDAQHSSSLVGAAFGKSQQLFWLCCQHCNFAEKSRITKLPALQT

[12] = biological target: T7, full length hGFRAL and full length …; assay: cell-based or functional assay; remark: listed apart in the source
VISTA-Fc [13] = biological target: T6, VISTA-Fc; assay: SPR; analyte 333 nM over immobilised VISTA-Fc (Ctrl-Fc)
Method: as §2, §3

hRET(ECR)-hIgG1.1_Fc [14] = biological target: T5, hRET(ECR)-hIgG1.1_Fc; assay: SPR; analyte 1000 nM over immobilised hRet(ECR)-Fc
Method: as §2, §3

VISTA-Fc [15] = biological target: T6, VISTA-Fc; assay: SPR; analyte 12 nM over immobilised VISTA-Fc (Ctrl-Fc)
Method: as §2

VISTA-Fc [16] = biological target: T6, VISTA-Fc; assay: SPR; analyte 1000 nM over immobilised VISTA-Fc (Ctrl-Fc)
Method: as §2, §3

hRET(ECR)-hIgG1.1_Fc [17] = biological target: T5, hRET(ECR)-hIgG1.1_Fc; assay: SPR; analyte 111 nM over immobilised hRet(ECR)-Fc
Method: as §2, §3

B1: mGFRAL(ECR)-Fab-HPC4 (receptor)
chain: QTNDCAHLIQKCLIDANGCEQSWRSMEDTCLTPGDSCKINNSLHCNLSIQALVEKNFQFKECLCMDDLHCTVNKLFGKKCTNKTDNMEKDNKDKWNLTTTPFYHGFKQMQSCLEVTEACVGDVVCNAQLALYLKACSANGNLCDVKHCQAAIRFFYQNMPFNTAQMLAFCDCAQSDIPCQQSKETLHSKPCALNIVPPPTCLSVIHTCRNDELCRTHYRTFQTECWPHITGKCHEDETCISMLGKQDLTCSGSESCRAAFLGTFGTVLQVPCACRGVTQAEEHVCMIFQHMLHSKSCFNYPTPNVKDISSYEKKNSKEITLTGFNSFFNGGGGSGGGGSDVVMTQTPLSLPVSLGDQASISCRSSQSLLHSNGNTYLHWYLQKPGQSPKLLIYKVSNRFSGVPDRFSGSGSGTDFTLKISRVEAEDLGVYFCSQSTHVPWTFGGGTKLEIKRADAAPTVSIFPPSSEQLTSGGASVVCFLNNFYPKDINVKWKIDGSERQNGVLNSWTDQDSKDSTYSMSSTLTLTKDEYERHNSYTCEATHKTSTSPIVKSFNRNEC
heavy: EVQIQESGPSLVKPSQTLSLTCSVSGDSITSGYWNWIRKFPGHKIEYMGTISYSGDTYYNPSLKSRISITRDTSKNQYYLHLNSVTTEDTATYYCARYGSYVFDYWGQGTTLTVSSAKTTPPSVYPLAPGSAAQTNSMVTLGCLVKGYFPEPVTVTWNSGSLSSGVHTFPAVLQSDLYTLSSSVTVPSSTWPSETVTCNVAHPASSTKVDKKIVPRDCGGGGSEDQVDPRLIDGK
notes: Soluble fusion of the mouse GFRAL (isoform 1) extracellular region with an anti-TNP Fab; also called mGFRA(ECR)L-Fab-HPC4
binding result (hPSPN): no binding | binding result (wild type human MIC-1): binds | binding result (hARTN): no binding | binding result (hNRTN): no binding | binding result (hGDNF): no binding

B2
Response (RU) (hRET(ECR)-hIgG1.1_Fc [1]): 0 RU | Response (RU) (hRET(ECR)-hIgG1.1_Fc [2]): 0.467 RU | Response (RU) (VISTA-Fc [3]): 0 RU | Response (RU) (VISTA-Fc [4]): -0.0179 RU | Response (RU) (hRET(ECR)-hIgG1.1_Fc [5]): 0.184 RU | Response (RU) (VISTA-Fc [6]): 0.362 RU | Response (RU) (hRET(ECR)-hIgG1.1_Fc [7]): 0.88 RU | EC50 of ERK1/2 phosphorylation; hGFRAL and hRET51 co-transfected PC12 cells [8]: ~0.2 nM | EC50 [9]: 1.3 nM | pERK1/2 (Evision Unit); HEK293 cells; wtMIC-1 0.001000 nM [10]: 1 Evision Unit | pERK1/2 (Evision Unit); HEK293 cells; wtMIC-1 0.030483 nM [10]: 1.07 Evision Unit | pERK1/2 (Evision Unit); HEK293 cells; wtMIC-1 0.091449 nM [10]: 0.988 Evision Unit | pERK1/2 (Evision Unit); HEK293 cells; wtMIC-1 0.274348 nM [10]: 1.07 Evision Unit | pERK1/2 (Evision Unit); HEK293 cells; wtMIC-1 0.823045 nM [10]: 1.17 Evision Unit | pERK1/2 (Evision Unit); HEK293 cells; wtMIC-1 2.469136 nM [10]: 1.24 Evision Unit | pERK1/2 (Evision Unit); HEK293 cells; wtMIC-1 7.407407 nM [10]: 1.3 Evision Unit | pERK1/2 (Evision Unit); HEK293 cells; wtMIC-1 22.222220 nM [10]: 1.26 Evision Unit | pERK1/2 (Evision Unit); HEK293 cells; wtMIC-1 66.666670 nM [10]: 1.32 Evision Unit | pERK1/2 (Evision Unit); HEK293 cells; wtMIC-1 0.001000 nM [11]: 1 Evision Unit | pERK1/2 (Evision Unit); HEK293 cells; wtMIC-1 0.030483 nM [11]: 1.03 Evision Unit | pERK1/2 (Evision Unit); HEK293 cells; wtMIC-1 0.091449 nM [11]: 1.01 Evision Unit | pERK1/2 (Evision Unit); HEK293 cells; wtMIC-1 0.274348 nM [11]: 1.05 Evision Unit | pERK1/2 (Evision Unit); HEK293 cells; wtMIC-1 0.823045 nM [11]: 1.09 Evision Unit | pERK1/2 (Evision Unit); HEK293 cells; wtMIC-1 2.469136 nM [11]: 1.07 Evision Unit | pERK1/2 (Evision Unit); HEK293 cells; wtMIC-1 7.407407 nM [11]: 1.14 Evision Unit | pERK1/2 (Evision Unit); HEK293 cells; wtMIC-1 22.222220 nM [11]: 1.11 Evision Unit | pERK1/2 (Evision Unit); HEK293 cells; wtMIC-1 66.666670 nM [11]: 1.16 Evision Unit | pERK1/2 (Evision Unit); HEK293 cells; wtMIC-1 0.001000 nM [12]: 1 Evision Unit | pERK1/2 (Evision Unit); HEK293 cells; wtMIC-1 0.030483 nM [12]: 1.02 Evision Unit | pERK1/2 (Evision Unit); HEK293 cells; wtMIC-1 0.091449 nM [12]: 0.969 Evision Unit | pERK1/2 (Evision Unit); HEK293 cells; wtMIC-1 0.274348 nM [12]: 1.13 Evision Unit | pERK1/2 (Evision Unit); HEK293 cells; wtMIC-1 0.823045 nM [12]: 1.4 Evision Unit | pERK1/2 (Evision Unit); HEK293 cells; wtMIC-1 2.469136 nM [12]: 1.69 Evision Unit | pERK1/2 (Evision Unit); HEK293 cells; wtMIC-1 7.407407 nM [12]: 1.7 Evision Unit | pERK1/2 (Evision Unit); HEK293 cells; wtMIC-1 22.222220 nM [12]: 1.73 Evision Unit | pERK1/2 (Evision Unit); HEK293 cells; wtMIC-1 66.666670 nM [12]: 1.74 Evision Unit | Response (RU) (VISTA-Fc [13]): 0.226 RU | Response (RU) (hRET(ECR)-hIgG1.1_Fc [14]): 0.527 RU | Response (RU) (VISTA-Fc [15]): -0.245 RU | Response (RU) (VISTA-Fc [16]): -0.515 RU | Response (RU) (hRET(ECR)-hIgG1.1_Fc [17]): 0.484 RU
